Reference: US20060024313A1, “Agents that disrupt dimer formation in DPP-IV family of prolyl dipeptidases” (priority 2004, published 2006)
Substitutions are numbered along the chain they refer to. Names and notes keep the numbering of the source. Values joined by “and” are separate entries in the source; they are usually repeats but may differ in a detail not shown here. Equal values may be shown once. “Also recorded” adds a separate entry of the source. Marks after values point to notes of the source that are not given here.

Legend:
DPP-IV [1] = assay: Dilution experiment (specific activity after two-fold dilutions); type: biochemical, human; details: 200 nM to 1.6 nM enzyme, 16 hours at 25° C., 10 uM H-Gly-Pro-pNA
Method: Enzyme concentrations ranging from 200 nM to 1.6 nM were used in the dilution experiments. The experiments were carried out with consecutive two-fold dilutions in PBS containing 0.1% BSA and 1 mM DTT (dithiothreitol). The solution after dilution was incubated at 25° C. for 16 hours to ensure attainment of dimer-monomer equilibrium. The reaction was initiated by adding the substrate H-Gly-Pro-pNA at a final concentration of 10 uM for both wild type DPP-IV and H750A proteins. The initial rate of the reaction was recorded and converted to specific activity.

[2] = Analytical ultracentrifugation (AUC): sedimentation velocity and equilibrium; type: physicochemical; details: for quaternary structure (subunit composition) by sedimentation velocity: High salt buffer (0.5 M sodium sulfate); for quaternary structure (monomer/dimer) by AUC: PBS buffer where stated; for Stokes' radius (Rs): sedimentation velocity experiments
Method: Buffer was changed using an Amicon device and DPP-IV proteins were allowed to equilibrate for at least four hours or longer as indicated in the text at 25° C. after buffer changes. The sedimentation coefficients (S) of the enzyme were estimated by a Beckman-Coulter XL-A analytical ultracentrifuge with an An60Ti rotor as described (25). Sedimentation velocity analysis was performed at 40,000 rpm at 25° C. with standard double sector aluminum centerpieces. The UV absorption of the cells was scanned every 5 min for 4 hours. Sedimentation equilibrium was performed at 20° C. with six-channel open centerpieces and then centrifuged at 12,000 rpm for 12 hours. The data from both sedimentation velocity and sedimentation experiments were analyzed with the SedFit version 8.7 program to obtain molecular weights and sedimentation coefficients (25). Sednterp version 1.07 program is used to obtain solvent density, viscosity, Stokes' radius (Rs) and anhydrous frictional ratio (f/fo).

[3] = Size exclusion chromatography (gel filtration, Superdex 200); type: physicochemical; details: gel filtration experiments; PBS buffer
Method: Chemical crosslinking in intact cells was conducted as described (24). Size exclusion chromatography was conducted at 4° C. Purified proteins (0.5 ml at a concentration of 5 uM) were applied to a Superdex 200 10/30 column (10×300-310 mm) pre-equilibrated with PBS. The sample was eluted with the same buffer at 0.3 ml/min and 0.25 ml fractions were collected. The Superdex 200 10/30 column was calibrated with the Stokes Radii of ferritin (6.1 nm), catalase (5.22 nm), aldolase (4.81 nm), albumin (3.55 nm), ovalbumin (3.05 nm) and chymotrypsinogen A (2.09 nm) from Amersham-Pharmacia.

DPP-IV [4] = assay: Kinetic constant measurements with chromogenic substrate H-Gly-Pro-pNA; type: biochemical, human; details: for AUC analysis or catalytic activities in low salt buffer: low salt buffer compared to PBS buffer (data not shown)
Method: To measure the kinetic parameters, the chromogenic substrate H-Gly-Pro-pNA was utilized to initiate the reaction, which was monitored at OD 405 nm as a function of time (21). […] The initial rate was measured with less than 10% substrate depletion for the first 10 to 300 seconds. The steady-state parameters, kcat and Km, were determined from initial velocity measurements at 0.5 to 5 Km of the substrate concentrations. Lineweaver-Burk plots were analyzed using non-linear regression of the Michaelis-Menten equation. Correlation coefficients better than 0.99 were obtained throughout.

[5] = High salt buffer, substrate H-Gly-Pro-pNA
[6] = PBS buffer, substrate H-Gly-Pro-pNA
[7] = compared with wild type rDPP-IV
[8] = Table III, monomer form of the mutant
[9] = values in text, monomeric mutants
[10] = Table III, dimer form of the mutant

B1: H750A: DPP-IV mutant, H750 mutated to Ala; mixture of dimer and monomer (protein)
chain: SRKTYTLTDYLKNTYRLKLYSLRWISDHEYLYKQENNILVFNAEYGNSSVFLENSTFDEFGHSINDYSISPDGQFILLEYNYVKQWRHSYTASYDIYDLNKRQLITEERIPNNTQWVTWSPVGHKLAYVWNNDIYVKIEPNLPSYRITWTGKEDIIYNGITDWVYEEEVFSAYSALWWSPNGTFLAYAQFNDTEVPLIEYSFYSDESLQYPKTVRVPYPKAGAVNPTVKFFVVNTDSLSSVTNATSIQITAPASMLIGDHYLCDVTWATQERISLQWLRRIQNYSVMDICDYDESSGRWNCLVARQHIEMSTTGWVGRFRPSEPHFTLDGNSFYKIISNEEGYRHICYFQIDKKDCTFITKGTWEVIGIEALTSDYLYYISNEYKGMPGGRNLYKIQLSDYTKVTCLSCELNPERCQYYSVSFSKEAKYYQLRCSGPGLPLYTLHSSVNDKGLRVLEDNSALDKMLQNVQMPSKKLDFIILNETKFWYQMILPPHFDKSKKYPLLLDVYAGPCSQKADTVFRLNWATYLASTENIIVASFDGRGSGYQGDKIMHAINRRLGTFEVEDQIEAARQFSKMGFVDNKRIAIWGWSYGGYVTSMVLGSGSGVFKCGIAVAPVSRWEYYDSVYTERYMGLPTPEDNLDHYRNSTVMSRAENFKQVEYLLIHGTADDNVHFQQSAQISKALVDVGVDFQAMWYTDEDHGIASSTAHQAIYTHMSHFIKQCFSLP
DPP-IV [1]
  specific activity on dilution: constant
[2]
  quaternary structure (subunit composition) by sedimentation velocity: mixture of dimer-monomer
  quaternary structure (monomer/dimer) by AUC: mixture of DPP-IV dimer and monomer
[2]; room temperature for up to 48 hours, after gel filtration
  subunit composition of separated dimer and monomer after incubation: maintain their subunit compositions
[3]
  Stokes' radius (Rs): 5.7 nm and 4.6 nm
DPP-IV [4]; [5]
  Km: 125 µM
  kcat: 16 s⁻¹
DPP-IV [4]; [6]
  Km: 77 µM
  kcat: 31 s⁻¹
DPP-IV [4]; [7]
  decrease in kcat: about 3 fold
DPP-IV [4]
  AUC analysis or catalytic activities in low salt buffer: no differences

B2: H750A monomer: monomer of H750A DPP-IV separated by gel filtration (protein)
chain: B1 chain
[2]; High salt buffer
  Sedimentation coefficient (s20, w): 3.3 S
  Stokes' radius (Rs): 3.7^b nm
[2]; PBS buffer
  Anhydrous frictional ratio (f/fo): 1.3
  Sedimentation coefficient (s20, w): 5.5 S
  Stokes' radius (Rs): 4.1^b nm
[3]
  Stokes' radius (Rs): 4.6^a nm
DPP-IV [4]; [6]
  Km: 64 µM
  kcat: 1.4 s⁻¹
DPP-IV [4]; [7]
  decrease in kcat: 60 fold

B3: 734A: DPP-IV C-terminal loop mutant, W734 substituted with Alanine (protein)
chain: B1 chain with W696A, A712H
[2]
  quaternary structure (monomer/dimer) by AUC: monomers
DPP-IV [4]; [8]
  Km: 90.5 µM
  kcat: 0.3 s − 1

B4: F713R: DPP-IV mutant, F713 substituted with Arginine (protein)
chain: B1 chain with F675R, A712H
[2]
  quaternary structure (monomer/dimer) by AUC: monomeric DPP-IV; also recorded: monomers
DPP-IV [4]; [9]
  Km: 784 µM
  kcat: 2.3 S^−1

B5: 735A: DPP-IV C-terminal loop mutant, Y735 substituted with Alanine (protein)
chain: B1 chain with Y697A, A712H
[2]
  quaternary structure (monomer/dimer) by AUC: monomers
DPP-IV [4]; [8]
  Km: 88.6 µM
  kcat: 0.05 s − 1

B6: 730A: DPP-IV C-terminal loop mutant, F730 substituted with Alanine (protein)
chain: B1 chain with F692A, A712H
[2]
  quaternary structure (monomer/dimer) by AUC: mixture with both monomers and dimers
DPP-IV [4]; [10]
  Km: 56.3 µM
  kcat: 27.9 s − 1
DPP-IV [4]; [8]
  Km: 53.7 µM
  kcat: 0.2 s − 1

B7: Y248A: DPP-IV propeller loop mutant, Y248 substituted with Alanine (protein)
chain: B1 chain with Y210A, A712H
[2]
  quaternary structure (monomer/dimer) by AUC: resulted in monomers; also recorded: monomer
DPP-IV [4]; [9]
  Km: 7 µM
  kcat: 0.01 S^−1

B8: H750A dimer: dimer of H750A DPP-IV separated by gel filtration (protein)
chain: B1 chain
[2]; High salt buffer
  Sedimentation coefficient (s20, w): 5.0 S
  Stokes' radius (Rs): 4.9^b nm
[2]; PBS buffer
  Anhydrous frictional ratio (f/fo): 1.4
  Sedimentation coefficient (s20, w): 8.5 S and 8.4 S
  Stokes' radius (Rs): 5.1^b nm
[3]
  Stokes' radius (Rs): 5.7^a nm
DPP-IV [4]; [6]
  Km: 79 µM
  kcat: 73 s⁻¹

B9: 724A: DPP-IV C-terminal loop mutant, V724 substituted with Alanine (protein)
chain: B1 chain with V686A, A712H
[2]
  quaternary structure (monomer/dimer) by AUC: mixture with both monomers and dimers
DPP-IV [4]; [10]
  Km: 87.5 µM
  kcat: 48.3 s − 1
DPP-IV [4]; [8]
  Km: 76.4 µM
  kcat: 0.5 s − 1

B10: H750E: DPP-IV mutant, H750 mutated to Glu; monomer (protein)
chain: B1 chain with A712E
[2]; High salt buffer
  Sedimentation coefficient (s20, w): 3.3 S
  Stokes' radius (Rs): 3.7^b nm
[2]
  quaternary structure (subunit composition) by sedimentation velocity: monomer
  quaternary structure (monomer/dimer) by AUC: consists only of monomer; also recorded: nearly exclusive monomers
[2]; PBS buffer
  Anhydrous frictional ratio (f/fo): 1.3
  Sedimentation coefficient (s20, w): 5.5 S
  Stokes' radius (Rs): 4.0^b nm
[3]
  Stokes' radius (Rs): 4.6 nm and 4.6^a nm
DPP-IV [4]; [5]
  Km: 1090 µM
  kcat: 2.1 s⁻¹
DPP-IV [4]; [6]
  Km: 956 µM
  kcat: 2.6 s⁻¹
DPP-IV [4]; [7]
  decrease in kcat: 30 fold
  increase in Km: 10 fold
DPP-IV [4]
  AUC analysis or catalytic activities in low salt buffer: no differences

B11: 713A: DPP-IV C-terminal loop mutant, F713 substituted with Alanine (protein)
chain: B1 chain with F675A, A712H
[2]; listed as F713A
  quaternary structure (monomer/dimer) by AUC: monomers; also recorded: monomeric DPP-IV
DPP-IV [4]; [8]
  Km: 50.1 µM
  kcat: 1.8 s − 1
DPP-IV [4]; [9]
  Km: 51 µM
  kcat: 1 S^−1

B12: DPP 8: member of the DPP-IV family of prolyl dipeptidases (protein)
chain: MAAAMETEQLGVEIFETADCEENIESQDRPKLEPFYVERYSWSQLKKLLADTRKYHGYMMAKAPHDFMFVKRNDPDGPHSDRIYYLAMSGENRENTLFYSEIPKTINRAAVLMLSWKPLLDLFQATLDYGMYSREEELLRERKRIGTVGIASYDYHQGSGTFLFQAGSGIYHVKDGGPQGFTQQPLRPNLVETSCPNIRMDPKLCPADPDWIAFIHSNDIWISNIVTREERRLTYVHNELANMEEDARSAGVATFVLQEEFDRYSGYWWCPKAETTPSGGKILRILYEENDESEVEIIHVTSPMLETRRADSFRYPKTGTANPKVTFKMSEIMIDAEGRIIDVIDKELIQPFEILFEGVEYIARAGWTPEGKYAWSILLDRSQTRLQIVLISPELFIPVEDDVMERQRLIESVPDSVTPLIIYEETTDIWINIHDIFHVFPQSHEEEIEFIFASECKTGFRHLYKITSILKESKYKRSSGGLPAPSDFKCPIKEEIAITSGEWEVLGRHGSNIQVDEVRRLVYFEGTKDSPLEHHLYVVSYVNPGEVTRLTDRGYSHSCCISQHCDFFISKYSNQKNPHCVSLYKLSSPEDDPTCKTKEFWATILDSAGPLPDYTPPEIFSFESTTGFTLYGMLYKPHDLQPGKKYPTVLFIYGGPQVQLVNNRFKGVKYFRLNTLASLGYVVVVIDNRGSCHRGLKFEGAFKYKMGQIEIDDQVEGLQYLASRYDFIDLDRVGIHGWSYGGYLSLMALMQRSDIFRVAIAGAPVTLWIFYDTGYTERYMGHPDQNEQGYYLGSVAMQAEKFPSEPNRLLLLHGFLDENVHFAHTSILLSFLVRAGKPYDLQIYPQERHSIRVPESGEHYELHLLHYLQENLGSRIAALKVI
[2]
  quaternary structure (monomer/dimer) by AUC: is a dimer; also recorded: exists as a dimer
